Data from article PMC9823104, “Targeted systematic evolution of an RNA platform neutralizing DNMT1 function and controlling DNA methylation”.

B1: Ce-10-2 sh (structured_RNA)
RNA: UUACUGGGCUGAGGUAAUGGCGAGG
modifications: 2'-F pyrimidines (all C and U)
B2: Ce-49 sh (structured_RNA)
RNA: CUGAGGCCUAACGAAGGCUUCU
modifications: 2'-F pyrimidines (all C and U)
B3: Ce-9 sh biotin (structured_RNA)
RNA: UGGGCUGAGCUCAUGGCGAGGCUUC
modifications: 2'-F pyrimidines (all C and U)
B4: mutR5 (ssRNA)
RNA: CAGAGGACAAGGCGAGGCAACA
modifications: 2'-F pyrimidines (all C and U)
B5: DNMT1 bait (2'F-Py R5) (structured_RNA)
RNA: CUGAGGCCUUGGCGAGGCUUCU
modifications: 2'-F pyrimidines (all C and U)
B6: Ce-10-1 sh biotin (structured_RNA)
RNA: AGGUAAUGGCGAGGCUUCUUAUCUG
modifications: 2'-F pyrimidines (all C and U)

Assays:
[1] = target: T1, DNMT1 (purified, Active Motif) (UniProt P26358 1-1616); assay: BLI; BLI: AR2G tips, protein amine-coupled, assay buffer not fully stated (PBS pre-hydration); MST: 50 nM RED-tris-NTA labelled stock in 25 mM Hepes pH 7.5, 250 mM NaCl, 0.05% Tween 20 / PBS-T mix, 25 C; EMSA: 5 mM Tris pH 7.4, 5 mM MgCl2, 1 mM DTT, 3% glycerol, 100 mM NaCl, RT; ELONA: PBS, RT; pulldown: 10 mM Tris pH 7.5, 200 nM (so in the source) NaCl, 5 mM EDTA, 0.1% Triton X-100; conditions: protein: commercial; for Kd: hairpin (predicted)
[2] = target: T2, His-tagged DNMT1 (Homo sapiens, UniProt P26358 1-1616); assay: MST; BLI: AR2G tips, protein amine-coupled, assay buffer not fully stated (PBS pre-hydration); MST: 50 nM RED-tris-NTA labelled stock in 25 mM Hepes pH 7.5, 250 mM NaCl, 0.05% Tween 20 / PBS-T mix, 25 C; EMSA: 5 mM Tris pH 7.4, 5 mM MgCl2, 1 mM DTT, 3% glycerol, 100 mM NaCl, RT; ELONA: PBS, RT; pulldown: 10 mM Tris pH 7.5, 200 nM (so in the source) NaCl, 5 mM EDTA, 0.1% Triton X-100; conditions: protein: commercial; tags: His6; hairpin (predicted)
[3] = target: T2, His-tagged DNMT1; assay: ELONA; BLI: AR2G tips, protein amine-coupled, assay buffer not fully stated (PBS pre-hydration); MST: 50 nM RED-tris-NTA labelled stock in 25 mM Hepes pH 7.5, 250 mM NaCl, 0.05% Tween 20 / PBS-T mix, 25 C; EMSA: 5 mM Tris pH 7.4, 5 mM MgCl2, 1 mM DTT, 3% glycerol, 100 mM NaCl, RT; ELONA: PBS, RT; pulldown: 10 mM Tris pH 7.5, 200 nM (so in the source) NaCl, 5 mM EDTA, 0.1% Triton X-100; conditions: protein: commercial; tags: His6; label: 3' biotin; hairpin (predicted)
[4] = target: T2, His-tagged DNMT1; assay: MST; up to 1.5 uM RNA; BLI: AR2G tips, protein amine-coupled, assay buffer not fully stated (PBS pre-hydration); MST: 50 nM RED-tris-NTA labelled stock in 25 mM Hepes pH 7.5, 250 mM NaCl, 0.05% Tween 20 / PBS-T mix, 25 C; EMSA: 5 mM Tris pH 7.4, 5 mM MgCl2, 1 mM DTT, 3% glycerol, 100 mM NaCl, RT; ELONA: PBS, RT; pulldown: 10 mM Tris pH 7.5, 200 nM (so in the source) NaCl, 5 mM EDTA, 0.1% Triton X-100; conditions: protein: commercial; tags: His6; unable to form stem-loop
[5] = target: T1, DNMT1 (purified, Active Motif); assay: BLI; no binding detected below 100 nM RNA; BLI: AR2G tips, protein amine-coupled, assay buffer not fully stated (PBS pre-hydration); MST: 50 nM RED-tris-NTA labelled stock in 25 mM Hepes pH 7.5, 250 mM NaCl, 0.05% Tween 20 / PBS-T mix, 25 C; EMSA: 5 mM Tris pH 7.4, 5 mM MgCl2, 1 mM DTT, 3% glycerol, 100 mM NaCl, RT; ELONA: PBS, RT; pulldown: 10 mM Tris pH 7.5, 200 nM (so in the source) NaCl, 5 mM EDTA, 0.1% Triton X-100; conditions: protein: commercial; hairpin (predicted)

T2 sequence (P26358 whole entry): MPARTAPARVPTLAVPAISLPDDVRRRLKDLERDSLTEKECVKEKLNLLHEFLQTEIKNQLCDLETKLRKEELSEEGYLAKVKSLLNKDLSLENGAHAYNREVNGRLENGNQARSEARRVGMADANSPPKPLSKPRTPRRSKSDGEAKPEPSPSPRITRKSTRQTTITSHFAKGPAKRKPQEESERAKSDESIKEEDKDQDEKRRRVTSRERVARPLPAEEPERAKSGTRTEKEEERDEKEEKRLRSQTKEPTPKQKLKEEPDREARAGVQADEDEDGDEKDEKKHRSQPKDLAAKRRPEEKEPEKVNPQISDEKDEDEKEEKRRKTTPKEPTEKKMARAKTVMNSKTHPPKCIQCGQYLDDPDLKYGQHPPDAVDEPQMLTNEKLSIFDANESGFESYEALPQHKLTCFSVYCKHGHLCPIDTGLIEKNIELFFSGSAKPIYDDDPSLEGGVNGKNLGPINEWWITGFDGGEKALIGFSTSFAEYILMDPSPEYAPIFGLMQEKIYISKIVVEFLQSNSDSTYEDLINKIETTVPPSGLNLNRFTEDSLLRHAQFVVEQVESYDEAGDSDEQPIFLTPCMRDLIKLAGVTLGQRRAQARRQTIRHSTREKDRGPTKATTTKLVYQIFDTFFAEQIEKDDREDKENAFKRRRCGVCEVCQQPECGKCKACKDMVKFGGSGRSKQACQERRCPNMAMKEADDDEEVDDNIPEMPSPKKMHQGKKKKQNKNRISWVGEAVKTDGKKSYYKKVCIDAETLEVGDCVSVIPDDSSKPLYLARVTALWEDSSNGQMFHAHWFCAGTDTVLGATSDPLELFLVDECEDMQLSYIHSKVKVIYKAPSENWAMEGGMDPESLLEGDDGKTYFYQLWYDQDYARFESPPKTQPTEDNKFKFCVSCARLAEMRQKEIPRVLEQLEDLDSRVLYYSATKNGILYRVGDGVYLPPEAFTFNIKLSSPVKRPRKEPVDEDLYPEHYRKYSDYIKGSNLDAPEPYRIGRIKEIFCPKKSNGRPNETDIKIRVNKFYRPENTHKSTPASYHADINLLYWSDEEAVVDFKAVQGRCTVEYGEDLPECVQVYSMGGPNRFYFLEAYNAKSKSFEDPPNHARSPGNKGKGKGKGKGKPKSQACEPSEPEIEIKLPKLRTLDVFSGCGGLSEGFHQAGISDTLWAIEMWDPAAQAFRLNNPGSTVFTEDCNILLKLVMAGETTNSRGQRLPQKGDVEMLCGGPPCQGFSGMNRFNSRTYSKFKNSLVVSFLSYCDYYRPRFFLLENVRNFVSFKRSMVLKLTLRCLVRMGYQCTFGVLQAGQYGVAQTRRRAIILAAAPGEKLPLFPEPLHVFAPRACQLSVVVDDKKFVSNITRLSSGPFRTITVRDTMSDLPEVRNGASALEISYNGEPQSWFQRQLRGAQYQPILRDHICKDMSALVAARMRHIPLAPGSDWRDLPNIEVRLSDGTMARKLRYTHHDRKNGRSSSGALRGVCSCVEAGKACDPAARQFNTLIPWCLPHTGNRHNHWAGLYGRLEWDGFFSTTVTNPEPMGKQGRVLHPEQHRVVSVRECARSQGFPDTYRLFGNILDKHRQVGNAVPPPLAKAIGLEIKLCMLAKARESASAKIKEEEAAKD
T1 sequence (P26358 whole entry): as above

Binder | Kd [1] [nM] | Kd [2] [nM] | binding result [3] | also measured
B1 | 66.4 ± 24 | 106 ± 42 |  | 
B2 | 79.2 ± 23.7 | 119 ± 34 |  | 
B3 |  |  | binds | 
B4 |  |  |  | binding result [4]: no binding; binding result ([1]; unable to form stem-loop): no binding
B5 |  | 440 ± 140 |  | Kd [5]: 600 ± 100 nM
B6 |  |  | binds | 
